Data on ten sequences can be found in the Immune Epitope Database (IEDB).

For one assay, the target named is HLA-B*15:09. As to the kind of experiment: IEDB peptide-MHC binding, purified MHC/direct/fluorescence; filed as Kd, often an IC50 or EC50 that approximates it; ≥ and ≤ were set here for values at or beyond the usual limits of such assays.
The next assay addresses HLA-B*39:01. The description is as above. The conditions noted are these: source organism: Yersinia enterocolitica subsp. enterocolitica 8081.
In a further assay the target is HLA-C*03:03. The assay is described as above.
Assay [1] addresses HLA-A*02:01. In words: IEDB peptide-MHC binding, purified MHC/competitive/radioactivity; ≥ and ≤ were set here for values at or beyond the usual limits of such assays. The note with it: source organism: Hepatitis B virus.
In the next assay the target is HLA-B*58:01. In words: IEDB peptide-MHC binding, purified MHC/direct/fluorescence; filed as Kd, often an IC50 or EC50 that approximates it; ≥ and ≤ were set here for values at or beyond the usual limits of such assays.
A further assay has as its target HLA-B*44:02. Described as above.
The next assay deals with HLA-C*06:02. The description is as above. The conditions noted are these: source organism: Orthohantavirus sinnombreense.
The target in a further assay is HLA-A*02:19. Described as above. The note with it: source organism: Limestone Canyon virus.
In another assay the target is HLA-A*03:01. The assay is described as above.
For another assay, the target named is HLA-B*57:01. Described as above.
Another assay deals with HLA-B*48:01. The assay is described as above.
The next assay addresses HLA-B*40:01. The description is as above.
The next assay addresses HLA-B*08:01. Described as above.
Another assay deals with HLA-B*46:01. The description is as above.
The target of the next assay is HLA-B*07:02. Described as above.
The next assay has as its target HLA-B*15:01. The assay is described as above.
Another assay concerns the target HLA-A*01:01. The description is as above.
Another assay deals with HLA-B*18:01. Described as above.
Assay [2] addresses HLA-A*26:01. As to the kind of experiment: IEDB peptide-MHC binding, purified MHC/competitive/fluorescence; filed as Kd, often an IC50 or EC50 that approximates it; ≥ and ≤ were set here for values at or beyond the usual limits of such assays. The note with it: source organism: Orthohantavirus sinnombreense.
The target in assay [3] is HLA-B*15:17. The assay is described as above. The conditions noted are these: source organism: Orthohantavirus sinnombreense.
For assay [4], the target named is HLA-A*26:01. In words: IEDB peptide-MHC binding, purified MHC/direct/fluorescence; filed as Kd, often an IC50 or EC50 that approximates it; ≥ and ≤ were set here for values at or beyond the usual limits of such assays.
For a further assay, the target named is HLA-A*69:01. The assay is described as above.
The target in assay [5] is HLA-A*02:01. The assay is described as above.
The target of assay [6] is HLA-A*24:02. The description is as above.
The next assay deals with HLA-A*31:01. The description is as above.
Another assay concerns the target HLA-B*27:05. Described as above.
The target in another assay is HLA-A*11:01. The description is as above.
A further assay addresses HLA-B*08:02. Described as above. The conditions noted are these: source organism: Salmonella enterica subsp. enterica serovar Typhimurium str. LT2.
A further assay addresses HLA-B*08:03. The assay is described as above. The conditions noted are these: source organism: Salmonella enterica subsp. enterica serovar Typhimurium str. LT2.
Assay [7] deals with HLA-B*15:17. Described as above. The note with it: source organism: Salmonella enterica.
For another assay, the target named is HLA-A*68:02. In words: IEDB peptide-MHC binding, purified MHC/competitive/fluorescence; filed as Kd, often an IC50 or EC50 that approximates it; ≥ and ≤ were set here for values at or beyond the usual limits of such assays. The conditions noted are these: source organism: Salmonella enterica subsp. enterica serovar Typhi.
In the next assay the target is HLA-C*12:03. In words: IEDB peptide-MHC binding, purified MHC/direct/fluorescence; filed as Kd, often an IC50 or EC50 that approximates it; ≥ and ≤ were set here for values at or beyond the usual limits of such assays.
Another assay addresses HLA-C*15:02. The description is as above. The conditions noted are these: source organism: Mammarenavirus choriomeningitidis.
For another assay, the target named is HLA-A*23:01. In words: IEDB peptide-MHC binding, purified MHC/competitive/radioactivity; filed as Kd, often an IC50 or EC50 that approximates it; ≥ and ≤ were set here for values at or beyond the usual limits of such assays. The conditions noted are these: source organism: Lassa virus Josiah.
In assay [8] the target is HLA-A*24:02. The assay is described as above. The conditions noted are these: source organism: Lassa virus Josiah.
The next assay concerns the target HLA-A*29:02. The assay is described as above. The note with it: source organism: Lassa virus Josiah.
Where [9] appears, read: source organism: Orthohantavirus sinnombreense.
[10] abbreviates: source organism: Vibrio cholerae.
The mark [11] stands for this setting: source organism: Vibrio cholerae RC385.
The mark [12] stands for this setting: source organism: Influenza A virus (A/Turkey/MO/24093/99(H1N2)).
Setting [13] is: source organism: Influenza A virus(A/swine/Henan/5/2004(H9N2)).
[14] abbreviates: source organism: Influenza A virus (A/Puerto Rico/8/34/Mount Sinai(H1N1)).
Setting [15] is: source organism: Salmonella enterica.
Where [16] appears, read: source organism: Mammarenavirus lassaense.
[17] abbreviates: source organism: Influenza A virus (A/Wisconsin/4755/1994(H1N1)).
Where [18] appears, read: source organism: Mycobacterium tuberculosis variant bovis BCG str. Pasteur 1173P2.

For the sequence FHYQDPFPL, the Kd in the assay with HLA-B*15:09 (source organism: Yersinia enterocolitica subsp. enterocolitica 8081) was at most 0.001 µM; in the assay with HLA-B*39:01, at most 0.001 µM; with HLA-C*03:03 (source organism: Yersinia pestis Nepal516), 1.39 µM.
On to FLPNDFFPSA, for which the 50% inhibitory concentration (IC50) with HLA-A*02:01 [1] worked out at 0.0021 µM.
For FRYKSRCYV, the dissociation constant (Kd) with HLA-B*58:01 (setting [9]) is at least 20 µM; with HLA-B*44:02 (setting [9]) it was at least 20 µM; with HLA-C*06:02, 0.007 µM; with HLA-A*02:19, at least 20 µM; with HLA-A*03:01 (setting [9]), at least 20 µM; with HLA-B*57:01 (setting [9]) it was at least 20 µM. Moreover, the Kd with HLA-B*48:01 (setting [9]), with HLA-B*40:01 (setting [9]), with HLA-B*08:01 (setting [9]), in the assay with HLA-B*46:01 (setting [9]), in the assay with HLA-B*07:02 (setting [9]) and with HLA-B*15:01 (setting [9]) was at least 20 µM each time. The Kd with HLA-A*01:01 (setting [9]), with HLA-B*18:01 (setting [9]), in the assay with HLA-A*26:01 [2] and in the assay with HLA-B*15:17 [3] was at least 20 µM throughout.
With GLRWHVRAF, the equilibrium dissociation constant (Kd) with HLA-B*58:01 (setting [10]), with HLA-B*44:02 (setting [10]), with HLA-B*15:09 (setting [11]), in the assay with HLA-A*26:01 [4] (setting [11]), with HLA-A*69:01 (setting [10]) and with HLA-A*02:01 [5] (setting [10]) was at least 20 µM throughout. The Kd is at least 20 µM in the assay with HLA-A*03:01 (setting [10]); at least 20 µM with HLA-A*24:02 [6] (setting [10]); at least 20 µM with HLA-A*31:01 (setting [10]); at least 20 µM with HLA-B*40:01 (setting [10]); at least 20 µM with HLA-B*27:05 (setting [10]); 0.407 µM with HLA-B*07:02 (setting [10]). The results for the Kd with HLA-A*11:01 (setting [10]), with HLA-B*15:01 (setting [10]) and with HLA-A*01:01 (setting [10]) were at least 20 µM, 0.0794 µM and at least 20 µM, respectively.
GMQIRGFVY: the equilibrium dissociation constant (Kd) was 4.75 µM in the assay with HLA-B*58:01 (setting [12]); at least 20 µM with HLA-B*44:02 (setting [12]); at least 20 µM in the assay with HLA-B*15:09 (setting [13]); at least 20 µM with HLA-A*26:01 [4] (setting [13]); at least 20 µM in the assay with HLA-A*69:01 (setting [12]); at least 20 µM with HLA-A*02:01 [5] (setting [12]). Besides, the Kd with HLA-A*03:01 (setting [14]) was 1.13 µM; with HLA-A*24:02 [6] (setting [12]), at least 20 µM; with HLA-B*40:01 (setting [12]), at least 20 µM; in the assay with HLA-B*27:05 (setting [12]), at least 20 µM; with HLA-B*08:01 (setting [12]), at least 20 µM; with HLA-B*07:02 (setting [12]), at least 20 µM. For the same sequence, the dissociation constant (Kd) with HLA-B*15:01 (setting [14]) is 0.26 µM; with HLA-A*01:01 (setting [12]) it was at least 20 µM.
For NVHRSQFAQ, the dissociation constant Kd with HLA-B*58:01 (setting [15]), with HLA-B*08:02, with HLA-A*02:01 [5] (setting [15]), with HLA-A*03:01 (setting [15]), in the assay with HLA-A*31:01 (setting [15]) and in the assay with HLA-B*57:01 (setting [15]) was at least 20 µM in each case. Further, the Kd with HLA-B*48:01 (setting [15]), in the assay with HLA-B*40:01 (setting [15]), with HLA-B*27:05 (setting [15]), with HLA-B*08:03, with HLA-B*08:01 (source organism: Salmonella enterica subsp. enterica serovar Typhimurium str. LT2) and in the assay with HLA-B*46:01 (setting [15]) was at least 20 µM each time. The Kd in the assay with HLA-B*07:02 (setting [15]), with HLA-A*11:01 (setting [15]), with HLA-B*15:01 (setting [15]), with HLA-A*01:01 (setting [15]), with HLA-B*18:01 (setting [15]) and in the assay with HLA-B*15:17 [7] was at least 20 µM throughout. For the same sequence, the Kd in the assay with HLA-A*68:02 was at least 20 µM.
With VATVNAVTV, the equilibrium dissociation constant (Kd) with HLA-C*12:03 (source organism: Leishmania major strain Friedlin) was found to be 0.018 µM.
Turning to YLISIFLHL, the dissociation constant Kd in the assay with HLA-A*69:01 (setting [16]) was 0.802 µM; with HLA-A*02:01 [5] (setting [16]) it was 0.0809 µM; with HLA-C*15:02, at least 20 µM; with HLA-A*23:01 it was 0.000422 µM; in the assay with HLA-A*24:02 [8] it was at least 67.7 µM; with HLA-A*29:02, 0.0997 µM.
Turning to YRYTYRCHR, the dissociation constant (Kd) was 0.587 µM with HLA-B*58:01 (setting [17]); at least 20 µM in the assay with HLA-B*44:02 (setting [17]); at least 20 µM with HLA-B*15:09 (source organism: Influenza A virus(A/swine/Shandong/fZC/2003(H9N2))); at least 20 µM with HLA-A*69:01 (setting [17]); at least 20 µM in the assay with HLA-A*02:01 [5] (setting [17]); at least 20 µM with HLA-A*03:01 (setting [17]). For the same sequence, the Kd is at least 20 µM with HLA-A*24:02 [6] (setting [17]); at least 20 µM in the assay with HLA-B*40:01 (setting [17]); 0.267 µM in the assay with HLA-B*27:05 (setting [14]); at least 20 µM in the assay with HLA-B*08:01 (setting [17]); at least 20 µM in the assay with HLA-B*46:01 (setting [17]); at least 20 µM with HLA-B*07:02 (setting [17]). Moreover, the Kd with HLA-A*11:01 (setting [17]), with HLA-B*15:01 (setting [17]) and with HLA-A*01:01 (setting [17]) was at least 20 µM in each case.
For YVIEPAAGL, the Kd with HLA-C*12:03 (setting [18]) is 0.023 µM; in the assay with HLA-C*03:03 (setting [18]), at most 0.001 µM.
